According to US20220282255, “APTAMER FOR TGF-BETA1 AND USE OF SAME” (RIBOMIC INC., published 2022):

Columns and labels:
TGF-β1 [1] = biological target: T1, TGF-β1 (Homo sapiens, UniProt P01137 P01137:279-390); test: cell_activity; SBE-luciferase HEK293, 80 pM:20 nM; settings: tags: Recombinant Human TGF-β1, Peprotech; chain copies: 2 (homodimer, inferred)
Experimental: (§1) Whether the nucleic acids of SEQ ID NOs: 4-13, 17-22, 26-28 inhibit the activity of TGF-β1 was evaluated by a cell assay system that monitors Smad signaling pathway known to be activated by the stimulation of TGF-β. To be specific, photinus luciferase equipped with SBE (Smad-binding element) in the promoter region was used as a reporter (pGL4.48[luc2P/SBE/Hygro] Vector, Promega KK). Together with this SBE-induced photinus luciferase reporter plasmid, a renillaluciferase expression plasmid (pGL4.74[hRluc/TK] Vector, Promega KK) was mixed at a ratio of 20:1 as a standardized control for transfection efficiency, and transfected into HEK293 cells. The transfected HEK293 cells were re-seeded in a 96-well plate and cultured until confluent. TGF-β1 and a mixture of nucleic acid aptamers of SEQ ID NOs: 4-13, 17-22, 26-28 synthesized using T7 RNA polymerase (Y639F) were added thereto to respective final concentrations of 80 pM, 20 nM, and the cells were cultured for 3 hr. Thereafter, the expression levels of photinus luciferase and renillaluciferase were confirmed using Dual-Luciferase (registered trade mark) Reporter Assay System (Promega KK). The measurement value of photinus luciferase in each sample was corrected with the measured value of renillaluciferase, and the relative expression level of each sample was calculated by setting the ratio of photinus luciferase and renillaluciferase in a sample free of addition of TGF-β1 as 1. […] When a nucleic acid pool of 35N, 40N or 50N (SEQ ID NO: 14, 1, 23) was used as a negative control and a known TGF-β antibody (R&D, MAB1835) was used as a positive control, the same treatment and measurement were performed.

TGF-β1 [2] = biological target: T1, TGF-β1; test: SPR; ++; settings: tags: Recombinant Human TGF-β1, Peprotech; chain copies: 2 (homodimer, inferred)
TGF-β1 [3] = biological target: T1, TGF-β1; test: cell_activity; 80 pM:20 nM; settings: tags: Recombinant Human TGF-β1, Peprotech; chain copies: 2 (homodimer, inferred); G4 (predicted)
Experimental: as §1
Whether or not these nucleic acids inhibit the activity of TGF-β1 was evaluated by a luciferase reporter assay similar to that in Example 4, as in Example 1.

TGF-β1 [4] = biological target: T1, TGF-β1; test: SPR; receptor-binding inhibition, 4 nM:4 nM; settings: tags: Recombinant Human TGF-β1, Peprotech; chain copies: 2 (homodimer, inferred)
Experimental: (§2) Measurement of Inhibitory Activity of Aptamer Against TGF-β1-2 Whether or not the nucleic acids of SEQ ID NOs: 6, 9, 19, 21, 26 inhibit the binding of TGF-β1 to the TGF-β receptor was evaluated by surface plasmon resonance method. For the measurement, Biacore T200 manufactured by GE Healthcare was used, and the measurement was performed by the method shown below. About 1500 RU of protein A was immobilized on the surface of a sensor chip of CM4 chip by using an amine coupling kit. 20 μL of Fc fusion TRII receptor (R&D) adjusted to 30 nM was injected as an analyte at a flow rate of 20 μL/min. As a result, the Fc fusion TRII receptor was immobilized on the surface of the sensor chip of the CM4 chip via protein A. Furthermore, a mixed solution of TGF-β1 (4 nM) or TGF-β1 (10 nM), and nucleic acid (30 nM) was injected. Solution A was used as the running buffer. Based on the RU value of a sample injected with TGF-β1 alone and the RU value before injection of TGF-β1, the effect of suppressing an increase in the RU value when TGF-β1 was injected in the presence of nucleic acid was calculated as the effect of inhibiting the binding of TGF-β1 to the TRII receptor.
The nucleic acids of SEQ ID NOs: 42(2-1)-42(2-8) used were chemically synthesized and purified by HPLC. Whether or not these nucleic acids inhibit the binding of TGF-β1 to the TGF-β receptor was determined by injecting a mixed solution of TGF-β1 (4 nM) and nucleic acid (4 nM) in the same manner as in Example 4, and evaluating by the surface plasmon resonance method. Whether or not these nucleic acids inhibit the activity of TGF-β1 was evaluated by adding to the final concentrations of TGF-β1 (80 pM) and nucleic acid (312.5 pM), and by a luciferase reporter assay as in Example 4.

TGF-β1 [5] = biological target: T1, TGF-β1; test: cell_activity; 80 pM:312.5 pM; settings: tags: Recombinant Human TGF-β1, Peprotech; chain copies: 2 (homodimer, inferred)
Experimental: as §1, with “TGF-β1 and a mixture of nucleic acid aptamers of SEQ ID NOs: 4-13, 17-22, 26-28 synthesized using T7 RNA polymerase (Y639F) were added thereto to respective final concentrations of 80 pM, 20 nM, and the cells were cultured for 3 hr.” left out
(§3) The nucleic acids of SEQ ID NOs: 42(2-1)-42(2-8) used were chemically synthesized and purified by HPLC. Whether or not these nucleic acids inhibit the binding of TGF-β1 to the TGF-β receptor was determined by injecting a mixed solution of TGF-β1 (4 nM) and nucleic acid (4 nM) in the same manner as in Example 4, and evaluating by the surface plasmon resonance method.

TGF-β1 [6] = biological target: T1, TGF-β1; test: SPR; receptor-binding inhibition, 4 nM:4 nM; settings: tags: Recombinant Human TGF-β1, Peprotech; chain copies: 2 (homodimer, inferred); remark: listed apart in the source
Experimental: as §2
as §3, with “42-48” for “42(2-1)-42(2-8)”

TGF-β1 [7] = biological target: T1, TGF-β1; test: cell_activity; 80 pM:312.5 pM; settings: tags: Recombinant Human TGF-β1, Peprotech; chain copies: 2 (homodimer, inferred); remark: listed apart in the source
Experimental: as §1
Whether or not these nucleic acids inhibit the activity of TGF-β1 was evaluated by adding to the final concentrations of TGF-β1 (80 pM) and nucleic acid (312.5 pM), and by a luciferase reporter assay as in Example 4.

T1 sequence (P01137 279-390, one chain of several): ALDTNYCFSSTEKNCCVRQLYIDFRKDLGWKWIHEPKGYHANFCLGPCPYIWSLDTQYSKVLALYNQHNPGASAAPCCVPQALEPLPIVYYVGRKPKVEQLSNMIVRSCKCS

B1: SEQ ID NO: 4 (ssRNA)
RNA: GGGAUCCGCAUCUAGAGUACUAAGGGUGGGGAGACUUGGGCCGGGCAGUCAGACGCGUGAAACGUCUACUGAAGCUAUCA
modifications: 2'-F all pyrimidines (U,C)
activity (TGF-β1 [1]): 63 % inhibition

B2: SEQ ID NO: 20 (ssRNA)
RNA: GGGAGAACUUGGAGCUGGUCCGGAAACUGGAUUCUCUCUAAAAGGGGUACCAGUGCGACGUCAGUC
modifications: 2'-F all pyrimidines (U,C)
binding result (TGF-β1 [2]): binds

B3: SEQ ID NO: 18 (ssRNA)
RNA: GGGAGAACUUGGAGCUCCCCCUCGCACUUAAUGGGUUCUGUGGCUGGAGAAAGUGCGACGUCAGUC
modifications: 2'-F all pyrimidines (U,C)
binding result (TGF-β1 [2]): binds

B4: SEQ ID NO: 36 (ssRNA)
RNA: GGGAGAACUUGGAGCUCCUGAAUAAGGGAGGGGAGACUUGUGGAGGGCAAAAGUGCGACGUCAGUC
modifications: 2'-F all pyrimidines (U,C)
activity (TGF-β1 [3]): 101 % inhibition

B5: SEQ ID NO: 37 (ssRNA)
RNA: GGGAGAACUUGGAGCUCCUGAAUAAGGGAGGGGAGACUUGUGGUGGGCAAGAGUGCGACGUCAGUC
modifications: 2'-F all pyrimidines (U,C)
activity (TGF-β1 [3]): 100 % inhibition

B6: SEQ ID NO: 35 (ssRNA)
RNA: GGGAGAACUUGGAGCUCCUGAAUAAGGGAGGGGAGACUUGUGGAGGGCAAGAGUGCGACGUCAGUC
modifications: 2'-F all pyrimidines (U,C)
activity (TGF-β1 [3]): 100 % inhibition

GGCAUAAGGGAGGGGAGACUUGUGGAGGGCAAG (ssRNA, 2'-OMe at A4, A11; 2'-F all pyrimidines) [SEQ ID NO: 42(2-3)]
binding signal (TGF-β1 [4]): 70.7 % inhibition | activity (TGF-β1 [5]): 66 % inhibition

GGCAUAAGGGUGGGGAGACUUGUGGAGGGCAAG (ssRNA, 2'-F all pyrimidines (U,C)) [SEQ ID NO: 43]
binding signal (TGF-β1 [6]): 99 % inhibition | activity (TGF-β1 [7]): 71.5 % inhibition

GGCAUAAGGGAGGGGAGACUUGUGGCGGGUAAA (ssRNA, 2'-F all pyrimidines (U,C)) [SEQ ID NO: 48]
binding signal (TGF-β1 [6]): 93.5 % inhibition | activity (TGF-β1 [7]): 63.9 % inhibition

GGCAUAAGGGAGGGGAGACUUGUGGAGGGCAAG (ssRNA, 2'-OMe at G1, A11; 2'-F all pyrimidines) [SEQ ID NO: 42(2-2)]
binding signal (TGF-β1 [4]): 76 % inhibition | activity (TGF-β1 [5]): 66 % inhibition

GGCAUAAGGGAGGGGAGACUUGUGGAGGGCAAG (ssRNA, 2'-OMe at A11, A31; 2'-F all pyrimidines) [SEQ ID NO: 42(2-6)]
binding signal (TGF-β1 [4]): 81.8 % inhibition | activity (TGF-β1 [5]): 72 % inhibition

GGCAUAAGGGAGGGGAGACUUGUGGAGGGCAAG (ssRNA, 2'-OMe at A11, G33; 2'-F all pyrimidines) [SEQ ID NO: 42(2-8)]
binding signal (TGF-β1 [4]): 83 % inhibition | activity (TGF-β1 [5]): 72 % inhibition

GGCAUAAGGGAGGGGAGACUUGUGGAGGGCAAG (ssRNA, 2'-OMe at A11, A26; 2'-F all pyrimidines) [SEQ ID NO: 42(2-1)]
binding signal (TGF-β1 [4]): 75.2 % inhibition | activity (TGF-β1 [5]): 61 % inhibition

GGCAUAAGGGAGGGGAGACUUGUGGUGGGCAAG (ssRNA, 2'-F all pyrimidines (U,C)) [SEQ ID NO: 45]
binding signal (TGF-β1 [6]): 99.2 % inhibition | activity (TGF-β1 [7]): 65.5 % inhibition

GGCAUAAGGGAGGGGAGACUUGUGGAGGGCAAG (ssRNA, 2'-OMe at A11, A32; 2'-F all pyrimidines) [SEQ ID NO: 42(2-7)]
binding signal (TGF-β1 [4]): 78.9 % inhibition | activity (TGF-β1 [5]): 78 % inhibition

GGCAUAAGGGAGGGGAGACUUGUGGAGGGCAAG (ssRNA, 2'-OMe at A11, A16; 2'-F all pyrimidines) [SEQ ID NO: 42(2-4)]
binding signal (TGF-β1 [4]): 84.2 % inhibition | activity (TGF-β1 [5]): 64 % inhibition

GGCAUAAGGGCGGGGAGACUUGUGGUGGGCAAG (ssRNA, 2'-F all pyrimidines (U,C)) [SEQ ID NO: 47]
binding signal (TGF-β1 [6]): 99.2 % inhibition | activity (TGF-β1 [7]): 70.3 % inhibition

GGCAUAAGGGUGGGGAGACUUGUGGUGGGCAAG (ssRNA, 2'-F all pyrimidines (U,C)) [SEQ ID NO: 46]
binding signal (TGF-β1 [6]): 99.2 % inhibition | activity (TGF-β1 [7]): 57.3 % inhibition

GGCAUAAGGGAGGGGAGACUUGUGGAGGGCAAG (ssRNA, 2'-OMe at A11, G17; 2'-F all pyrimidines) [SEQ ID NO: 42(2-5)]
binding signal (TGF-β1 [4]): 75.6 % inhibition | activity (TGF-β1 [5]): 62 % inhibition

GGCAUAAGGGCGGGGAGACUUGUGGAGGGCAAG (ssRNA, 2'-F all pyrimidines (U,C)) [SEQ ID NO: 44]
binding signal (TGF-β1 [6]): 98.7 % inhibition | activity (TGF-β1 [7]): 69.4 % inhibition

B7: SEQ ID NO: 5 (ssRNA)
RNA: GGGAUCCGCAUCUAGAGUACAUCGUGGCGGGAAAGCCGCCCCAUUCUCUCGGGUCCUAGAAACGUCUACUGAAGCUAUCA
modifications: 2'-F all pyrimidines (U,C)
binding result (TGF-β1 [2]): binds

B8: SEQ ID NO: 28 (ssRNA)
RNA: GGGAAUGCACUAGUGUUCAAUAAACACUAAGUGAUCCUCCUGCAAGCUAUGAAGAACUUAACGGCUCGUAAAGCUUGCACGUCGAGUCAG
modifications: 2'-F all pyrimidines (U,C)
binding result (TGF-β1 [2]): binds

B9: SEQ ID NO: 19 (ssRNA)
RNA: GGGAGAACUUGGAGCUCCCCCUCGCAUUCGGAUUAAUUUGUGACUGCAUUGAGUGCGACGUCAGUC
modifications: 2'-F all pyrimidines (U,C)
activity (TGF-β1 [1]): 91 % inhibition

B10: SEQ ID NO: 22 (ssRNA)
RNA: GGGAGAACUUGGAGCUUGACGGCGCUACAUUAUGCUCCAACGGUACUUUAUAGUGCGACGUCAGUC
modifications: 2'-F all pyrimidines (U,C)
binding result (TGF-β1 [2]): binds

B11: SEQ ID NO: 11 (ssRNA)
RNA: GGGAUCCGCAUCUAGAGUACCGCGUGAGCGGCGUCUUGCUAUGACGUAAAGAAUCGUUACAACGUCUACUGAAGCUAUCA
modifications: 2'-F all pyrimidines (U,C)
binding result (TGF-β1 [2]): binds
